This is an account of results in patent US20200165328A1 (Janssen / Centocor, published 2020).

Broadly, the EC50 is the midpoint of the concentration-response curve. Higher therefore signals a less potent agent. The EC50 (read off the curve) is the midpoint of the concentration-response curve. High values mean a need for much substance, low ones an effect from little substance. In general, Kd refers to the free concentration of one partner at which half of the binding sites on the other are occupied at equilibrium, for simple one-to-one binding. Lower therefore signals tighter binding.

Assay [1] deals with T1, rodent Aβ3pE-40 (rodent, UniProt P12023 674-711, pyroglutamate at the third residue of Aβ (N-terminal residue of this peptide)).
T1 construct: domain: Aβ3pE-40; Synthetic peptide
T1 peptide (looked up): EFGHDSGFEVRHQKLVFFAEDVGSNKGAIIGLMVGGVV
Briefly: sandwich ELISA, Aβ/pE3/1 coated, detection with JRF/cAβ40/28-HRPO. How it is done:
(§1) Concentrations up to 10,000 […] were tested.
(§2) Standards were dissolved in dimethylsulphoxide (DMSO) (Sigma) at 0.1 mg/mL and stored at −80° C. For use in ELISA, peptides were further diluted in 0.1% casein in PBS down to 1 μg/mL. […] Standards were incubated overnight at 4° C. together with HRPO-labeled secondary antibody (JRF/cAβ40/28-HRPO or JRF/cAβ42/26-HRPO). After overnight incubation, plates were washed and the assay was developed with TMB peroxide EIA substrate kit (Biorad) according to the manufacturer's recommendations.
For orientation: An ELISA detects its analyte on a solid surface through an enzyme-linked reagent.

The target in assay [2] is T2, human Aβ3-42 peptide (human).
T2 construct: Synthetic peptide; also called N-truncated (Aβ3-42)
Briefly: sandwich ELISA, Aβ/pE3/1 coated, detection with JRF/cAβ42/26-HRPO. On the procedure:
as §1, §2

Assay [3] concerns the target T3, human Aβ1-42 peptide (human).
T3 construct: Synthetic peptide; also called full-length human (Aβ1-42)
The description is as above. How it is done:
as §1, §2

Assay [4] has as its target T4, human Aβ3pE-40 peptide (human, pyroglutamate at the third residue of Aβ (N-terminal residue of this peptide)).
T4 construct: Synthetic peptide (AnaSpec)
Briefly: sandwich ELISA, antibody coated, peptide standard, detection with JRF/cAβ40/28-HRPO. How it is done: (§3) For the selected Aβ3pE monoclonal antibodies, the sensitivity for detection of Aβ3-40 (SEQ ID NO:24) (AnaSpec, Fremont, USA) and Aβ3pE-40 (SEQ ID NO:22) (AnaSpec, Fremont, USA) was evaluated in a sandwich assay using synthetic peptides as standards.
(§4) Standards of Aβ3-40 (SEQ ID NO:24) and Aβ3pE-40 (SEQ ID NO:22) peptides were dissolved in dimethylsulphoxide (DMSO) (Sigma) at 0.1 mg/mL and stored at −80° C. For use in ELISA, peptides were further diluted in 0.1% casein in PBS down to 1 μg/mL. […] Standards were incubated overnight at 4° C. together with HRPO-labeled secondary antibody. After overnight incubation, the plates were washed and the assay was developed with Quantablu substrate (Pierce, Rockford, Ill.) according to the manufacturer's recommendations.

Assay [5] deals with T5, human Aβ3-40 peptide (human).
T5 construct: Synthetic peptide (AnaSpec), N-truncated, no pyroglutamate
The assay is described as above. On the procedure:
as §3, §4

Assay [6] deals with T4, human Aβ3pE-40 peptide. Briefly: sandwich ELISA: Aβ/pE3/1 coated as capture, peptide titrated, detection with JRF/cAβ40/28-HRPO, net OD 450 nm. How it is done:
as §1, §2

Assay [7] addresses T5, human Aβ3-40 peptide. Described as above. On the procedure: as §1, §2
The target of assay [8] is T6, human Aβ1-40 peptide (human).
T6 construct: Synthetic peptide
Described as above. How it is done: as §1, §2

Assay [9] has as its target T4, human Aβ3pE-40 peptide. Briefly: SPR (Biacore T200), single cycle kinetics, antibody captured by anti-mouse antibody, peptide 3.125-50 nM, 1:1 fit, mean of n = 6. On the procedure: Immobilization of the anti-mouse antibody was performed via amine coupling on a CM5 sensor chip following the manufacturer's protocol. […] The surface was regenerated with 10 mM glycine HCl at pH 1.7 for at least 180 sec and additional 60 sec. Human Aβ (1-40) peptide was used as a negative control.
Affinity measurements were performed using an optical biosensor T200 (Biacore®). Kinetic analysis was performed according to 1:1 binding fitting model with Biacore T200 Evaluation Software (version 2.0).

T3 sequence (peptide, as listed by the source): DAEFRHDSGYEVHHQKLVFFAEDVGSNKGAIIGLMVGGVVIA
T2 sequence (peptide, as listed by the source): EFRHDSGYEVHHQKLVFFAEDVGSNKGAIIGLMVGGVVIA

B1: Aβ/pE3/1 (antibody, mouse IgG2a, kappa, V domains shown)
VH: QVQLQQPGAELVRPGASVKLSCKTSGYTFTRYWINWVKQRPGQGLEWIGNIRPSDSYTNYNQKFKDKATLTVDKSSSTAYMQLNRPTSEDSAVYYCTREGAYSDYETYWGQGTLVTVSA
VL: not shown
notes: Murine monoclonal; also called Clone 1; antibody from clone 1
Consider B1, for which the binding result is reported as “no binding (tested: up to 10 ng/mL)” in [1], “binds” in [2], “no binding (tested: up to 10 ng/mL)” in assay [3] and “no binding (tested: 10000 pg/ml (LOG 4))” in [8]. Also, the values for the EC50 in assay [4] and in assay [5] were 0.026 nM and 0.355 nM, respectively. The entries for the concentration for a half-maximal effect (EC50 (read off the curve)) in assay [6] and in assay [7] were about 0.1 ng/mL and about 1 ng/mL, respectively. In addition, the Kd in assay [9] stood at 0.853 nM.
